These results are taken from patent US20090226428A1 (CEPHALON AUSTRALIA, published 2009).

Numbering of substitutions follows the chain as printed.

Assay [1] deals with T1, human TNF-α (human, UniProt P01375 77-233). As to the kind of experiment: cell-based or functional assay.
Assay [2] addresses T1, human TNF-α. Briefly: receptor binding assay (ELISA): dAb mixed with TNF (10 ng/ml), binding of TNF to captured TNF receptor 1 Fc fusion protein detected; blocked partner TNF receptor 1-Fc. The procedure: dAbs diversified in the 14 selected positions were tested for the ability to inhibit the binding of TNF to recombinant TNF receptor 1 (p55). Briefly, Maxisorp plates were incubated overnight with […] anti-human Fc mouse monoclonal antibody (Zymed, San Francisco, USA). The wells were washed with phosphate buffered saline (PBS) containing 0.05% Tween-20 and then blocked with 1% BSA in PBS before being incubated with 100 ng/ml TNF receptor 1 Fc fusion protein (R&D Systems, Minneapolis, USA). Each dAb was mixed with TNF which was added to the washed wells at a final concentration of 10 ng/ml. TNF binding was detected with 0.2 mg/ml biotinylated anti-TNF antibody (HyCult biotechnology, Uben, Netherlands) followed by 1 in 500 dilution of horse radish peroxidase labelled streptavidin (Amersham Biosciences, UK) and then incubation with TMB substrate (KPL, Gaithersburg, USA). The reaction was stopped by the addition of HCl and the absorbance was read at 450 nm. Anti-TNF dAb activity lead to a decrease in TNF binding and therefore a decrease in absorbance compared with the TNF only control (FIG. 5).
A general note: An ELISA detects its analyte on a solid surface through an enzyme-linked reagent.

T1 sequence (P01375 77-233 limits assumed): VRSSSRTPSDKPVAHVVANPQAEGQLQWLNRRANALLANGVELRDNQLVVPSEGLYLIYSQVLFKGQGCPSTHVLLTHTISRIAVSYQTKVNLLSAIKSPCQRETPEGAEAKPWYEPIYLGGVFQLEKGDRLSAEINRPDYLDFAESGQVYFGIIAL

B1: Compound 100 (other)
VL: DIQMTQSPSSLSASVGDRVTITCRASQSIDSYLHWYQQKPGKAPKLLIYSASNLETGVPSRFSGSGSGTDFTLTISSLLPEDFATYYCQQVVWRPFTFGQGTKVEIKR
Take B1: the “EC50 (read off the curve); L929 cytotoxicity assay, cell viability (% control)” value in the assay with human TNF-α [1] was roughly 50 nM.

B2: Compound 123 (other)
VL: B1 VL with S28A, L79Q
B2: the “EC50 (read off the curve); L929 cytotoxicity assay, cell viability (% control)” value with human TNF-α [1] is roughly 50 nM.

B3: Acceptor dAb (Compound 128) (other)
VL: B1 VL with N53E, E55Q, T56S, L79Q
notes: also called acceptor variable region (anti-TNF domain antibody)
In the case of B3, in the assay with human TNF-α [2], the “IC50 (read off the curve)” value is roughly 30 nM.

B4: Compound 145 (marmoset CDR-grafted dAb) (other)
VL: B1 VL with L79Q
notes: also called parent dAb
For the molecule B4, in the assay with human TNF-α [2], the “IC50 (read off the curve)” value was roughly 30 nM.
